Patent US20220411495A1, “POSITIVE ALLOSTERIC MODULATORS OF THE CALCIUM-SENSING RECEPTOR” (VIB VZW, priority 2019, published 2022)
Residue numbers refer to the chain shown, from its start.

T1: human CaSR wild type (hCaSR WT) (Homo sapiens, UniProt P41180, E1011Q)
T1 construct: mGlu5 signal peptide (N, cleaved yes); expressed in transfected cells
T1 sequence (P41180 20-1078 E1011Q): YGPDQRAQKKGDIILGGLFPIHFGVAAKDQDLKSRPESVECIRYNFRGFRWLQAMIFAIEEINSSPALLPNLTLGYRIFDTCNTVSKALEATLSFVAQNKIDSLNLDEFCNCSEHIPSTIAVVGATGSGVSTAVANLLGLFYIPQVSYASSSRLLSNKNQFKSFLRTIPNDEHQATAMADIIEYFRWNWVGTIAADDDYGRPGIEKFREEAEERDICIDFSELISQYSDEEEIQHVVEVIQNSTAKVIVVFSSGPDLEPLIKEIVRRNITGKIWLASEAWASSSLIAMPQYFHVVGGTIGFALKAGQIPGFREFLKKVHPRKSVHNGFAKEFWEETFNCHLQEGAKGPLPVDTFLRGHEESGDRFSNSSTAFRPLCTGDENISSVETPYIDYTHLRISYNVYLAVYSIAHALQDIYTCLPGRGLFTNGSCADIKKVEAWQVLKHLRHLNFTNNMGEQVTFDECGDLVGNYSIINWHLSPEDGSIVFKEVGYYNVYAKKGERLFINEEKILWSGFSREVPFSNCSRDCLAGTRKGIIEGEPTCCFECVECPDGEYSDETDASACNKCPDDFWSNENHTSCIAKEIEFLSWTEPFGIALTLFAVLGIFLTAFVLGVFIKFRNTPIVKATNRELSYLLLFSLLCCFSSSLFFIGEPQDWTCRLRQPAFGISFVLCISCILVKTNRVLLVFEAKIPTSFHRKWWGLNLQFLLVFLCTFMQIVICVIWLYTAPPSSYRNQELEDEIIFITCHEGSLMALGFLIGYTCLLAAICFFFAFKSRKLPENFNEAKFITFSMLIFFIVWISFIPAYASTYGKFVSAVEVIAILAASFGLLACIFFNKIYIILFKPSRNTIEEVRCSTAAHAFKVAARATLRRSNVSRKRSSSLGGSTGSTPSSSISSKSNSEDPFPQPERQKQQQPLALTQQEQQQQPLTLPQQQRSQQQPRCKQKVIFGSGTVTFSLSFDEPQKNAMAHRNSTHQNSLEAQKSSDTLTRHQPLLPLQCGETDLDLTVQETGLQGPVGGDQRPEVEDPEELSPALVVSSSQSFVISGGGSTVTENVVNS

B1: Nb2: llama-derived CaSR-specific nanobody acting as PAM, SEQ ID NO:9 (protein)
VHH: QVQLVESGGGLVQAGSSLRLSCAASGRTFSNYRMAWFRQAPGKEREFVAVISRGGGGADYADSVKGRFTISRDNVKNTVSLQMNSLKPEDTAVYFCAARISGFSYYTSVDRYDYWGQGTQVTVSS
modifications: CaSR Nb2
B2: Nb36: llama-derived CaSR-specific nanobody acting as PAM, SEQ ID NO:7 (protein)
VHH: QVQLVESGGGLVQAGESLRLSCAASGRTFSSYRMGWFRQGPGKEREFVAAITATGVRTYYADSVKGRFTISRDNAKNTVYLQMNSLQPDDTAVYLCAARRKAIFSVQQALTITDYDDWGQGTQVTVSS
modifications: CaSR Nb36
B3: Nb11: llama-derived CaSR-specific nanobody acting as PAM, SEQ ID NO:6 (protein)
VHH: QVQLVESGGGLVQAGGSLRLSCAASGRTFSTYRMGWFRQGPGKEREFVAAITATGVKTYYTDSVKGRFTISRDNAKNTVYLQMNSVQPEDTAVYSCAARIKAIFTAQQAATITDYDYWGQGTQVTVSS
modifications: CaSR Nb11
B4: Nb15: llama-derived CaSR-specific nanobody acting as PAM, SEQ ID NO:10 (protein)
VHH: QVQLVESGGGLVQAGGSLRLSCAASGRTFNNYHMAWFRQAPGKEREFAAAISRRAGTTYYADSVKGRFTISRDNAKNTVYLQMNSLKPEDTAVYYCAADPDTYGVSYLARKYDYWGQGTQVTVSS
modifications: CaSR Nb15
B5: Nb5: llama-derived CaSR-specific nanobody, weakest PAM, SEQ ID NO:8 (protein)
VHH: QVQLVESGGRLVQDGGSLRLSCAASGLTFSDYSMGWFRQVPGKEREFVAVIRRSNDSTYYADFVKGRFTISRDNAKNTVYLQMNSLQPEDTAVYSCAADRGGVGLTSAQTYAYWGQGTQVTVSS
modifications: CaSR Nb5
B6: Nb10: llama-derived CaSR-specific nanobody acting as PAM, SEQ ID NO:3 (protein)
VHH: QVQLVESGGGLVQPGDSLRVSCAASGGSFRSYAMAWFRQAPGKEREFVAAMSGTYGSTIYSDSMKGRFTISRDNAKKMVYLRMNSLRPEDTAVYYCAGYYSGAYYGTPKTDYTEYDSWGQGTQVTVSS
modifications: CaSR Nb10
B7: Nb37: llama-derived CaSR-specific nanobody acting as PAM, SEQ ID NO:4 (protein)
VHH: B6 VHH with Q39R, S61A, P88A
modifications: CaSR Nb37
B8: Nb4: llama-derived CaSR-specific nanobody acting as PAM, SEQ ID NO:5 (protein)
VHH: QVQLVESGGGLVQAGGSLRLSCAASGRTFSTYRMGWFRQGLGKEREFVAAITANGVRTFYTDSVKGRFTISRDNAKNTLYLQMNSLQPDDTAVYLCAARRKGIFTVQQAQDITDWDYWGQGTQVTVSS
modifications: CaSR Nb4

Target: T1, human CaSR wild type (hCaSR WT)
Assay: IP1 accumulation assay, Flp-In HEK293 HA-hCaSR WT cells
Assay type: cell-based
Details: for Effect on Ca2+ concentration-response curve (IP1): increasing concentrations of PAM; for PAM activity in IP1 accumulation screen: fixed nanobody concentration 5 μM, 30 min pre-incubation
Method: Nanobodies were successfully purified by immobilized metal ion affinity chromatography (IMAC) and size exclusion chromatography (SEC) prior to pharmacological characterization (FIG. 1). Each nanobody was initially screened for Gq/11 activity in the Cisbio IP1 accumulation assay as this is the primary signaling pathway of CaSR (Chavez-Abiega et al., 2020). Whole HEK293 HA-hCaSR WT cells were pre-incubated for 30 minutes at 37° C. with a fixed nanobody concentration (5 μM) prior to stimulation with the endogenous ligand Ca^2+. The well characterized positive allosteric modulator (PAM) chemical NPS R-568 and negative allosteric modulator (NAM) chemical NPS 2143 were added as reference compounds. […] No nanobodies with agonist or NAM activity were observed when all nanobodies screened in the absence or in the presence of EC80 Ca^2+, respectively (FIGS. 4A and 4B). […] Except for CaSR Nb5, the same nanobodies acted as PAMs when ERK1/2 phosphorylation was measured in the presence of EC20 Ca^2+ (FIG. 2B). Again, none of the nanobodies elicited an agonist or NAM response (FIGS. 5B and 5C).
All cell lines utilized in this study were grown at 37° C. and 5% CO2. The HEK293A (RRID: CVCL_6910) and stable Flp-In HEK293 cells were cultured in Dulbecco's Modified Eagle Medium (DMEM, #31966021) supplemented with 10% dialyzed Fetal Bovine Serum (dFBS) and 1% 10,000 units/mL penicillin and 10,000 μg/mL streptomycin mixture (pen/strep). The stable Flp-In CHO cells were cultured in F-12K medium (#21127022) supplemented with 10% dFBS and 1% pen/strep. Additionally, the stable Flp-In HEK293 and Flp-In CHO cell lines were cultured in the presence of respectively 200 and 500 μg/mL hygromycin B. For pharmacological characterization, Flp-In HEK293 HA-hCaSR WT cells were seeded in poly-D-lysine-coated clear 96 well tissue culture plates (Corning, Corning, N.Y., USA) at a density of 50,000 cells/well 18 h prior to assay. Experiments with HA-rCaSR WT and HA-hCaSR S170A required transient transfection of HEK293A cells 24 h prior to assay. DNA construct and Lipofectamine 2000 were diluted in Opti-MEM and mixed together after 5 minutes incubation at room temperature. For HA-rCaSR WT, 30 ng/well rCaSR DNA diluted in 25 μL/well Opti-MEM was mixed with 0.25 μL/well Lipofectamine 2000 in 25 μL/well Opti-MEM. For HA-hCaSR S170A, 40 ng/well […] DNA diluted in 25 μL/well Opti-MEM was mixed with 0.25 μL/well Lipofectamine 2000 in 25 μL/well Opti-MEM. The DNA:Lipofectamine 2000 mixtures were incubated 20 minutes at room temperature after which 50 μL/well was added to a poly-D-lysine-coated clear 96 well tissue culture plate. Next, 100 μL/well of a 400,000 cells/mL HEK293A cell solution prepared in culture media was added and the plate was placed at 37° C. and 5% CO2 (final cell density 40,000 cells/well).
Inositol monophosphate (IP1) accumulation was measured using the commercially available HTRF® IP1 accumulation kit (Cisbio Bioassays, Codolet, France) and an EnVision multimode plate reader (PerkinElmer, Waltham, Mass., USA). Unless stated otherwise, the cells were washed once with 100 μL/well assay buffer and stimulated for 30 minutes at 37° C. with 50 μL/well ligand(s) diluted in assay buffer supplemented with 20 mM LiCl. Following stimulation, the cells were washed once with 100 μL/well and lysed for 30 minutes at room temperature with 30 μL/well lysis buffer provided with the kit. The lysed cells were diluted 1:2 with assay buffer after which 10 μL/well was pipetted to a white 384-well OptiPlate (PerkinElmer, Waltham, Mass., USA). Next, 10 μL of a detection solution consisting of 2.5% IP1-d2 conjugate and 2.5% anti-IP1 antibody diluted in assay buffer was added to each well. Fluorophore emissions were measured after the plate was stored in the dark for 1 h. The 615/665 nm emission ratios measured upon excitation at 340 nm were converted to IP1 concentrations with an IP1 standard curve according to the manufacturer's instructions.

[1] = IP1 accumulation at EC20 Ca2+, three independent experiments in triplicate

Molecule | Need for pre-incubation for PAM activity (IP1) (5 μM, with or without 30 minutes pre-incubation at 37° C., EC20 Ca2+) | IP1 accumulation in the absence of added Ca2+ (1:1 ratio, total 10 μM, alone = combined with inactive Nb7) | Max. response (fold over basal ± S.E.M.), human ortholog (IP1 accumulation at EC20 Ca2+) | EC50 (IP1 accumulation at EC20 Ca2+, three independent experiments in triplicate, read-out: Potency (pEC50 ± S.E.M.), human ortholog (converted)) | Effect on Ca2+ concentration-response curve (IP1) | Potency (pEC50 ± S.E.M.), human ortholog [1] | PAM activity in IP1 accumulation screen (EC20 Ca2+)
COc1cccc([C@@H](C)NCCCc2ccccc2Cl)c1 [NPS R-568, reference compound] | did not require pre-incubation | did not induce IP1 accumulation | 3.89 ± 0.07 fold over basal | 120 nM | – | – | –
C[C@@H](NCCCc1cccc(C(F)(F)F)c1)c1cccc2ccccc12 [cinacalcet, reference compound] | – | – | – | – | leftward shift | – | –
B1 | – | – | 3.52 ± 0.21 fold over basal | – | – | 6.71 ± 0.08 | potentiated IP1 accumulation
B2 | – | – | 4.78 ± 0.21 fold over basal | – | – | 6.78 ± 0.17 | potentiated IP1 accumulation
B3 | – | – | 3.50 ± 0.17 fold over basal | – | – | 6.28 ± 0.07 | potentiated IP1 accumulation
B4 | – | – | 3.38 ± 0.36 fold over basal | – | – | 6.59 ± 0.03 | potentiated IP1 accumulation
B5 | – | – | 1.88 ± 0.05 fold over basal | – | – | – | potentiated IP1 accumulation
B6 | – | – | 3.36 ± 0.09 fold over basal | – | – | 6.33 ± 0.03 | potentiated IP1 accumulation
B7 | – | – | 4.04 ± 0.32 fold over basal | – | – | 6.22 ± 0.05 | potentiated IP1 accumulation
B8 | – | – | 3.74 ± 0.08 fold over basal | – | leftward shift | 7.08 ± 0.13 | potentiated IP1 accumulation
